Measured values published in patent EP4733393A1 (Todo, Tomoki, dated 2026).

How the values were obtained:
mouse PD-1 = target: T1, mouse PD-1 (mouse, UniProt Q02242 25-167); assay: AlphaLISA Mouse PD-1 and PD-L1 Binding Kit, inhibition of mouse PD-1/PD-L1 binding; concentration as human Fc (Fig. 1-3-1 B)
T1 sequence (looked up): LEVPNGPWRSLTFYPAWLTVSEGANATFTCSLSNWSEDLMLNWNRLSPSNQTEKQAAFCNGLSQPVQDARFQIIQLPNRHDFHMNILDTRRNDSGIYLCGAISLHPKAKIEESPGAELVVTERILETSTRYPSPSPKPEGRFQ

human CTLA-4 [1] = target: T2, human CTLA-4 (human, UniProt P16410 36-161); assay: AlphaLISA Human CTLA-4/CD80 Binding Kit, inhibition of human CTLA-4/CD80 (B7-1) binding; concentration as human Fc (Fig. 7-3-2 B)
T2 sequence (looked up): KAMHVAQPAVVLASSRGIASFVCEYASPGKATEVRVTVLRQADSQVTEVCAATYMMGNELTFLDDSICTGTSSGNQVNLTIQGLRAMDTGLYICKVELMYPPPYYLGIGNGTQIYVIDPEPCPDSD

human CTLA-4 [2] = target: T2, human CTLA-4; assay: AlphaLISA Human CTLA-4/CD80 Binding Kit, inhibition of human CTLA-4/CD80 (B7-1) binding; concentration as human Fc (Fig. 7-3-1 B)

B1: anti-mouse PD-1 antibody (derived from J43) with human IgG4 heavy chain constant region and human λ light chain constant region, expressed from the J43/SV-01 … (antibody, V domains shown)
VH: EVRLLESGGGLVKPEGSLKLSCVASGFTFSDYFMSWVRQAPGKGLEWVAHIYTKSYNYATYYSGSVKGRFTISRDDSRSMVYLQMNNLRTEDTATYYCTRDGSGYPSLDFWGQGTQVTVSS
VL: YELTQPPSASVVGETVKITCSGDQLPKYFADWFHQRSDQTILQVIYDDNKRPSGIPERISGSSSGTTATLTIRDVRAEDEGDYYCFSGYVDSDSKLYVFGSGTQLTVLG
notes: also called antibody encoded by T-J43
**Q.** How did the IC50 (mouse PD-1) turn out when B1 was run?
**A.** The IC50 was 6.81 ng/mL.

B2: anti-human CTLA4 antibody (derived from ticilimumab), expressed from the Tic/SV-01 plasmid (antibody, human IgG2, kappa, V domains shown)
VH: QVQLVESGGGVVQPGRSLRLSCAASGFTFSSYGMHWVRQAPGKGLEWVAVIWYDGSNKYYADSVKGRFTISRDNSKNTLYLQMNSLRAEDTAVYYCARDPRGATLYYYYYGMDVWGQGTTVTVSS
VL: DIQMTQSPSSLSASVGDRVTITCRASQSINSYLDWYQQKPGKAPKLLIYAASSLQSGVPSRFSGSGSGTDFTLTISSLQPEDFATYYCQQYYSTPFTFGPGTKVEIKR
notes: also called antibody encoded by T-Tic; derived from ticilimumab (tremelimumab)
**Q.** With B2 as the binder, how does the IC50 (human CTLA-4 [1]) read?
**A.** The IC50 was 25.4 ng/mL.

B3: anti-human CTLA4 antibody (derived from ipilimumab), expressed from the Ipi/SV-01 plasmid (antibody, human IgG1, kappa, V domains shown)
VH: QVQLVESGGGVVQPGRSLRLSCAASGFTFSSYTMHWVRQAPGKGLEWVTSISYDGNNKYYADSVKGRFTISRDNSKNTLYLQMNSLRAEDTAIYYCARTGWLGPFDYWGQGTLVTVSS
VL: not shown
notes: also called antibody encoded by T-Ipi
**Q.** Which IC50 (human CTLA-4 [2]) does the source give for B3 here?
**A.** Its IC50 is 8.24 ng/mL.
